Assays:
[1] = system: human pancreatic cancer MiaPaCa-2 xenograft; test: Antitumour efficacy in human pancreatic cancer MiaPaCa-2 xenograft model; type: in vivo, CD-1 athymic nude mice; details: 0.04 mg/kg murine IL-17E i.p. every third day
Description: The ability of murine interleukin 17E to inhibit human pancreatic cancer growth was examined as follows. Human pancreatic cancer MiaPaCa-2 cells (10^6 cells in 100 μl PBS) were subcutaneously implanted into the right flank of CD-1 athymic nude mice. Murine IL-17E was obtained from R&D Systems, Inc., and is present in the preparation as a disulphide linked homodimer. The predominant form of IL-17E in this preparation is the form starting at Val 17 of the murine sequence provided as GenBank Accession No. NP 542767. When tumours reached a volume of 50-100 mm^3, mice were randomly separated into two groups of 8 animals and treated as follows:
Group I: […] of PBS intraperitoneally (i.p.) per mouse every day until the endpoint of the experiment; and
Group II: 0.04 mg/kg of murine IL-17E intraperitoneally (i.p.) every third day until the endpoint of the experiment.
The size of the tumours was measured by caliper measurements throughout the experiment. Tumour weight was determined from tumour tissue surgically excised from the animal on the last day of the experiment. […]
25 μg of murine or human IL-17E were reconstituted with 200 μl PBS. […] Samples were separated by electrophoresis on SDS-PAGE gels and analyzed by either Western blotting or silver staining to show a reduction in IL-17E levels in immunodepleted samples. […]

murine IL-17E receptor = molecular target: T1, murine IL-17E receptor (Mus musculus, UniProt Q9JIP3); test: FACS binding to IL-17E receptor on pre-B cell line 70Z/3; details: 1 μg/10^6 cells, 30 minutes at 4° C.
T1 construct: murine IL-17E receptor present on the pre-B cell line 70Z/3; endogenous in cells; host or cells: murine pre-B cell line 70Z/3
T1 sequence (Q9JIP3 18-499): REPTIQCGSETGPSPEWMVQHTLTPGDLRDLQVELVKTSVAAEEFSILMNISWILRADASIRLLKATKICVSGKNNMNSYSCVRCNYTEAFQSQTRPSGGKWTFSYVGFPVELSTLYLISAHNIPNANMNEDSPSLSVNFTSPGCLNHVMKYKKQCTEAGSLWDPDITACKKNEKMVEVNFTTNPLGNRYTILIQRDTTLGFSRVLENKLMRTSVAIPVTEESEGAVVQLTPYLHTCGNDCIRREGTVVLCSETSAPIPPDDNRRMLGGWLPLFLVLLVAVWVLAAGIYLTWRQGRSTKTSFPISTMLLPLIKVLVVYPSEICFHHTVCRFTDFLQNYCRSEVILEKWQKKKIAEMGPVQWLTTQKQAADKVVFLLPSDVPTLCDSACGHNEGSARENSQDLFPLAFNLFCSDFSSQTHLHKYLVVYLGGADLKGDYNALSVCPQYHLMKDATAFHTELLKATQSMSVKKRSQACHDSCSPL
Description: The ability of human and murine interleukin 17E to bind to the IL-17E receptor was examined using the murine pre-B cell line 70Z/3 (Paige, C. J., et al. (1981) Nature 292:631-3).
1×10^6 70Z/3 cells/sample were incubated with either murine or human IL-17E (1 μg/10^6 cells) for 30 minutes at 4° C. After washing twice, cells that had been incubated with murine IL-17E were incubated with biotin-conjugated goat anti-mouse IL17E and phycoerythrin (PE)-Cy5.5-conjugated streptavidin. Cells that had been incubated with human IL-17E were incubated with biotin-conjugated goat anti-human IL17E-biotin and phycoerythrin (PE)-Cy5.5-conjugated streptavidin. As negative controls, cells were stained with antibodies as described without preincubation with human or murine IL-17E. Samples were then fixed with 0.5% paraformaldehyde prior to FACS analysis.

IL-5 = test: Serum IL-5 in tumour-engrafted mice (ELISA); type: in vivo, CD1-nude mice
Description: The expression of IL-5 in serum was examined in tumour-engrafted mice treated with IL-17E. CD1-nude mice were engrafted with either C8161 human melanoma cells or MiaPaCa2 pancreatic cancer cells and treated with either PBS or murine IL-17E as described previously. Serum samples were collected individually from each mouse at the endpoint of the experiment, and IL-5 levels were determined by ELISA assay (BD OptEIA; BD Biosciences), according to the manufacturer's instructions. Immunoassay plates were coated with anti-mouse IL-5 monoclonal antibody as a capture antibody and incubated with serial dilutions of mouse sera. Plates were washed three times with wash buffer and blocked for 1 hr at room temp. Plates were incubated with biotinylated anti-mouse IL-5 monoclonal antibody and avidin-horseradish peroxidase conjugate for 1 hour, followed by seven washes. Substrate solution was added for 30 minutes, followed by stop solution, prior to measurement of absorbance (450/570 nm). Statistical analysis was performed to compare IL-5 levels. P values <0.05 were considered to be significant.

B1: murine IL-17E: Murine IL-17E from R&D Systems; predominant form starting at Val 17 of GenBank NP 542767 (protein)
chain: VSLRIQEGCSHLPSCCPSKEQEPPEEWLKWSSASVSPPEPLSHTHHAESCRASKDGPLNSRAISPWSYELDRDLNRVPQDLYHARCLCPHCVSLQTGSHMDPLGNSVPLYHNQTVFYRRPCHGEEGTHRRYCLERRLYRVSLACVCVRPRVMA
- tumour growth (tumour volume and weight) as compared to PBS [1]: significantly inhibit tumour growth
- binding to murine IL-17E receptor on 70Z/3 cells (FACS) (murine IL-17E receptor): bound
- serum levels of IL-5 as compared to PBS (IL-5; mice engrafted with human melanoma C8161 cells): significantly higher
- serum levels of IL-5 as compared to PBS (IL-5; mice engrafted with human pancreatic cancer MiaPaCa2 cells): significantly higher

B2: human IL-17E: Recombinant human IL-17E from PeproTech; two 145 amino acid chains, predominant form starting at Tyr 33 of GenBank AAG40848 (protein, listed as Homo sapiens)
chain: YSHWPSCCPSKGQDTSEELLRWSTVPVPPLEPARPNRHPESCRASEDGPLNSRAISPWRYELDRDLNRLPQDLYHARCLCPHCVSLQTGSHMDPRGNSELLYHNQTVFYRRPCHGEKGTHKGYCLERRLYRVSLACVCVRPRVMG
- binding to murine IL-17E receptor on 70Z/3 cells (FACS) (murine IL-17E receptor): bound
